In US20230235072A1 (DENALI THERAPEUTICS, published 2023):
Positions count from the first letter of the chain named. Like-named read-outs stand apart in the source and are kept apart here.

What was measured:
[1] = molecular target: T1, human transferrin receptor (TfR) ectodomain (ECD) (human, UniProt P02786 121-760, biotinylated where captured on streptavidin); test: phage ELISA: phage at about its EC50 on plate-coated human TfR with soluble holo-Tf added at 0.007-5 uM; OD650
T1 construct: also called human TfR; huTfR

[2] = molecular target: T2, cynomolgus transferrin receptor (TfR) ectodomain (ECD) (cynomolgus, UniProt Q5RDH6 121-760 (Pongo abelii entry), biotinylated where captured on streptavidin); test: phage ELISA: Fc variant on phage, titrated by OD268 of the phage solution on plate-coated cyno TfR; OD650
T2 construct: also called cyno TfR; cynoTfR
T2 chain: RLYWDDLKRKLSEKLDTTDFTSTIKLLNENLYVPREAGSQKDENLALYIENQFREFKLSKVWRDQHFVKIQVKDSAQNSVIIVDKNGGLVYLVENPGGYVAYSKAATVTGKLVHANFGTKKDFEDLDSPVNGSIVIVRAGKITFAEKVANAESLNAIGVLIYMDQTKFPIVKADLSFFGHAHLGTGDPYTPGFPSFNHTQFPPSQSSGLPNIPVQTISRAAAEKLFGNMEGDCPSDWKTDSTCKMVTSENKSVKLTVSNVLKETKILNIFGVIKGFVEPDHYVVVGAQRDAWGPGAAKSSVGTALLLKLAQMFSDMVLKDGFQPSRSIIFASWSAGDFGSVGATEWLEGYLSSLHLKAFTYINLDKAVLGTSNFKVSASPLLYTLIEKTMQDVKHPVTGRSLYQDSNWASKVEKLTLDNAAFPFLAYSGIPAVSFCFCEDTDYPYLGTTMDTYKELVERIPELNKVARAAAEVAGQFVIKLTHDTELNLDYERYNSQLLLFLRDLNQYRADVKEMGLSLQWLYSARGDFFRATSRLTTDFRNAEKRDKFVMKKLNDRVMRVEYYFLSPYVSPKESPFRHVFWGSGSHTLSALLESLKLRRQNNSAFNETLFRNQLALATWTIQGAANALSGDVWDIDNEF

[3] = molecular target: T1, human transferrin receptor (TfR) …; test: competition phage ELISA: phage-displayed clone at about its EC50 on plate-coated human TfR, soluble human TfR varied as competitor; OD650
[4] = molecular target: T2, cynomolgus transferrin receptor (TfR) …; test: phage ELISA: Fc variant on phage, titrated by OD268 of the phage solution on plate-coated cyno TfR; OD650
[5] = molecular target: T2, cynomolgus transferrin receptor (TfR) …; test: as above
[6] = molecular target: T1, human transferrin receptor (TfR) …; test: phage ELISA: Fc variant on phage, titrated by OD268 of the phage solution on plate-coated human TfR; OD650
[7] = molecular target: T2, cynomolgus transferrin receptor (TfR) …; test: phage ELISA: Fc variant on phage, titrated by OD268 of the phage solution on plate-coated cyno TfR; OD650

B1: Clone CH2A2.4 (designed binder)
chain: PCPAPELLGGPSVFLFPPKPKDTLMISRTPEVTCVVVDVSHEDPEVSFEWYVDGVPVRWEWQWPREEQYNSTYRVVSVLTVLHQDWLNGKEYKCKVSNKALPAPIEKTISKAKGQPREPQVYTLPPSRDELTKNQVSLTCLVKGFYPSDIAVEWESNGQPENNYKTTPPVLDSDGSFFLYSKLTVDKSRWQQGNVFSCSVMHEALHNHYTQKSLSLSPGK
- binding result [1]: binds
- binding result [2]: binds

B2: Clone CH2A2.1 (designed binder)
chain: B1 chain with S47E, E49I, P56D, W59Y, W63L
- binding result [3]: binds
- binding result [4]: binds

B3: Clone CH2A2.16 (designed binder)
chain: B1 chain with S47W, P56F, R58G, W59V, E60A, W61Y, Q62D, W63V
- binding result [1]: binds
- binding result [5]: no binding (tested: OD268 1 (phage solution))

B4: Clone CH2A2.5 (designed binder)
chain: B1 chain with S47A, E49T, W63N
- binding result [6]: binds
- binding result [7]: binds
